According to the supplement of paper PMC11136658:

Test system: peptide library, one residue held at a place counted from the Y acceptor
Experiment: relative phosphorylation of the sub-library (ratio to the mean residue at this position); higher = residue favoured
Procedure, shortened: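 Peptide library mixtures, biotinylated and centred on Tyr, each fixed one residue at one position from −5 to +5. Purified recombinant kinases were incubated with them for 90 min in 384-well plates alongside 50 μM ATP and γ-32P-ATP, and the captured, rinsed peptides on streptavidin membranes were measured by phosphorimaging and ImageQuant. Normalization divided each position's intensities by the sum of its 18 randomized residues (16 for the Ser/Thr-free library) and multiplied by that number, so that values give phosphorylation relative to the mean randomized residue.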

MKK7, construct: Full length, human, sequence (O14733 whole entry, looked up): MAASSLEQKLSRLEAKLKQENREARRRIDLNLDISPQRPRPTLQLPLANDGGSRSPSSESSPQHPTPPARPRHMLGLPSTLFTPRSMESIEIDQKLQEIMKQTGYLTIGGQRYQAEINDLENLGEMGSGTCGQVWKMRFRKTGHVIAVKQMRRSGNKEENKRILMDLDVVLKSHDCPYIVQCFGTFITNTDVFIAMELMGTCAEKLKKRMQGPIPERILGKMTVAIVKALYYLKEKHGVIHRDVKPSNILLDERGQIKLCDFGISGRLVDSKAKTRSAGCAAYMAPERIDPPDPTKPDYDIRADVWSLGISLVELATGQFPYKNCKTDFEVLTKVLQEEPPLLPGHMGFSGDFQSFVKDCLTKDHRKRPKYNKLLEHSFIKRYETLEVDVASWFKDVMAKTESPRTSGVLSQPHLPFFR
NTRK1, construct: aa440-end, human, sequence (P04629 440-796, looked up): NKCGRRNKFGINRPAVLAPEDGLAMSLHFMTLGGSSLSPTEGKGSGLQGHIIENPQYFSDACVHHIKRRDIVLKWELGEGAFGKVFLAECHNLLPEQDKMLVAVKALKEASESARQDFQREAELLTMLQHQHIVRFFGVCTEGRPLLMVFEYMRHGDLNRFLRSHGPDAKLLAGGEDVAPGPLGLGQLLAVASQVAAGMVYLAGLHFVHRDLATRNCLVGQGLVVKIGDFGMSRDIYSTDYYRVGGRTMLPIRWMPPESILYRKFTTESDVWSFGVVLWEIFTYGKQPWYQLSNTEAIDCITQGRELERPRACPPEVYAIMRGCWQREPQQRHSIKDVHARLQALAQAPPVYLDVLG

MKK7, construct: Full length, human (from UniProt O14733)
relative phosphorylation
Settings	at +1	at +2	at +3	at +4	at +5	at -1	at -2	at -3	at -4	at -5
A fixed	0.866	0.844	0.903	0.959	0.929	1.02	0.884	0.883	1.05	0.989
D fixed	0.796	1.11	1.02	1.07	0.952	0.915	0.883	0.947	0.993	1.02
E fixed	0.856	0.895	1.27	0.992	1.05	0.914	0.91	0.926	0.996	0.917
F fixed	1.11	1.39	1.21	1.13	1.14	0.857	1.28	1.1	1.08	1.14
G fixed	0.926	0.779	0.915	0.979	1.11	1.38	1.24	1.25	1.19	1.04
H fixed	1	1.09	1.02	1.02	1.02	0.958	1.06	1.05	0.968	1.09
I fixed	0.983	0.753	0.89	0.93	0.8	0.896	0.764	0.807	0.882	0.87
K fixed	0.896	1.09	0.896	0.989	1.08	1.04	1.17	1.14	1.06	1.16
L fixed	1.04	0.851	0.841	1.13	0.891	1.04	0.821	0.912	0.894	0.913
M fixed	1.38	0.857	1.05	1.03	0.977	0.926	0.855	0.828	0.881	0.89
N fixed	0.919	0.946	0.973	0.894	0.984	0.947	1.04	0.98	0.89	0.959
P fixed	0.955	0.819	0.941	1.09	1.04	1.07	1.04	1.06	1.11	0.99
Q fixed	0.873	0.929	1.09	0.881	0.991	0.951	0.891	1.07	0.974	0.952
R fixed	1	1.09	1.01	0.97	1.13	1.12	1.29	1.24	1.13	1.16
V fixed	0.918	0.844	0.822	0.828	0.73	0.85	0.803	0.794	0.844	0.802
W fixed	1.49	1.72	1.14	1.11	1.18	1.12	1.07	1.01	1.06	1.1
pThr fixed	0.894	1.05	0.876	1.08	1.01	1.09	0.859	1.08	1.05	1.11
pTyr fixed	0.963	1.06	1.03	1.01	1.09	1.57	1.11	1.82	1.05	1.11

NTRK1, construct: aa440-end, human (from UniProt P04629)
relative phosphorylation
Settings	at +1	at +2	at +3	at +4	at +5	at -1	at -2	at -3	at -4	at -5
A fixed	1.34	0.684	0.751	0.76	0.909	0.676	0.944	0.792	1.02	0.882
D fixed	0.529	0.79	0.541	1.4	1.19	2.24	1.22	1.3	1.08	1.17
E fixed	0.936	1.28	0.45	1.52	1.12	1.07	1.34	1.5	1.32	1.03
F fixed	1.66	1.26	1.82	0.952	1.24	0.966	0.812	1.12	1.33	1.04
G fixed	0.711	0.438	0.891	1.25	1.07	0.578	1.05	0.955	1.05	1.08
H fixed	0.979	0.731	0.706	1.09	0.991	1.42	0.947	1.15	0.963	1.04
I fixed	1.66	1.28	2.02	0.897	0.748	1.32	0.854	0.777	0.837	0.946
K fixed	0.236	0.577	0.271	0.658	0.783	0.273	0.811	0.691	0.722	0.782
L fixed	1.2	1.2	1.92	0.734	0.983	1.17	1.01	0.794	0.939	0.93
M fixed	1.79	1.4	1.64	1.04	1.03	0.884	1.02	0.979	0.884	0.997
N fixed	0.441	0.952	0.475	0.899	1	2.12	1.25	1.39	0.93	1.23
P fixed	0.267	0.688	0.885	1.15	1.42	0.942	0.936	0.875	1.12	0.996
Q fixed	0.984	0.922	0.544	1.01	0.944	0.869	1.18	0.872	1.1	1.04
R fixed	0.273	0.983	0.419	0.803	0.883	0.349	0.871	0.854	0.79	1.02
S fixed	0.736	0.743	0.725	0.829	0.788	0.686	1.11	1.01	0.803	0.89
T fixed	0.916	0.955	0.868	0.85	0.715	0.873	0.897	0.987	0.671	0.939
V fixed	1.84	1.06	1.38	0.784	0.743	0.951	0.756	0.696	0.791	0.785
W fixed	1.5	2.06	1.71	1.37	1.43	0.614	0.99	1.25	1.66	1.2
pThr fixed	1.54	0.962	0.449	1.08	0.958	0.981	0.838	0.952	0.96	1.03
pTyr fixed	2.47	2.33	0.884	1.74	1.01	4.13	1.32	1.48	1.44	1.23
